The source of these data is IntAct's records for PubMed 25910212.

To fix the notation:
B1: Peripheral myelin protein 22 (Homo sapiens), Q01453 (parent)
chain: MLLLLLSIIVLHVAVLVLLFVSTIVSQWIVGNGHATDLWQNCSTSSSGNVHHCFSSSPNEWLQSVQATMILSIIFSILSLFLFFCQLFTLTKGGRFYITGIFQILAGLCVMSAAAIYTVRHPEWHLNSDYSYGFAYILAWVAFPLALLSGVIYVILRKRE
partner: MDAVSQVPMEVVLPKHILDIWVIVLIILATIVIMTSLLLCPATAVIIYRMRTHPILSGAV
B2: U4/U6 small nuclear ribonucleoprotein Prp31 (Homo sapiens), Q8WWY3 (parent)
chain: MSLADELLADLEEAAEEEEGGSYGEEEEEPAIEDVQEETQLDLSGDSVKTIAKLWDSKMFAEIMMKIEEYISKQAKASEVMGPVEAAPEYRVIVDANNLTVEIENELNIIHKFIRDKYSKRFPELESLVPNALDYIRTVKELGNSLDKCKNNENLQQILTNATIMVVSVTASTTQGQQLSEEELERLEEACDMALELNASKHRIYEYVESRMSFIAPNLSIIIGASTAAKIMGVAGGLTNLSKMPACNIMLLGAQRKTLSGFSSTSVLPHTGYIYHSDIVQSLPPDLRRKAARLVAAKCTLAARVDSFHESTEGKVGYELKDEIERKFDKWQEPPPVKQVKPLPAPLDGQRKKRGGRRYRKMKERLGLTEIRKQANRMSFGEIEEDAYQEDLGFSLGHLGKSGSGRVRQTQVNEATKARISKTLQRTLQKQSVVYGGKSTIRDRSSGTASSVAFTPLQGLEIVNPQAAEKKVAEANQKYFSSMAEFLKVKGEKSGLMST
partner: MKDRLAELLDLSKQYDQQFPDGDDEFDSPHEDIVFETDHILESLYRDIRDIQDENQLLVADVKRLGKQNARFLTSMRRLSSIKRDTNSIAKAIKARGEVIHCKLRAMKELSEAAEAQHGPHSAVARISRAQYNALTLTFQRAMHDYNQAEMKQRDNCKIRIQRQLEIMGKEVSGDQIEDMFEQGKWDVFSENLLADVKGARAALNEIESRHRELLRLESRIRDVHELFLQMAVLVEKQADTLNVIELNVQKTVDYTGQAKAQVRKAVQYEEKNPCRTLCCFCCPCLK
B3: SWI/SNF-related matrix-associated actin-dependent regulator of chromatin subfamily A member 2 (Homo sapiens), P51531-1 (parent)
chain: MSTPTDPGAMPHPGPSPGPGPSPGPILGPSPGPGPSPGSVHSMMGPSPGPPSVSHPMPTMGSTDFPQEGMHQMHKPIDGIHDKGIVEDIHCGSMKGTGMRPPHPGMGPPQSPMDQHSQGYMSPHPSPLGAPEHVSSPMSGGGPTPPQMPPSQPGALIPGDPQAMSQPNRGPSPFSPVQLHQLRAQILAYKMLARGQPLPETLQLAVQGKRTLPGLQQQQQQQQQQQQQQQQQQQQQQQPQQQPPQPQTQQQQQPALVNYNRPSGPGPELSGPSTPQKLPVPAPGGRPSPAPPAAAQPPAAAVPGPSVPQPAPGQPSPVLQLQQKQSRISPIQKPQGLDPVEILQEREYRLQARIAHRIQELENLPGSLPPDLRTKATVELKALRLLNFQRQLRQEVVACMRRDTTLETALNSKAYKRSKRQTLREARMTEKLEKQQKIEQERKRRQKHQEYLNSILQHAKDFKEYHRSVAGKIQKLSKAVATWHANTEREQKKETERIEKERMRRLMAEDEEGYRKLIDQKKDRRLAYLLQQTDEYVANLTNLVWEHKQAQAAKEKKKRRRRKKKAEENAEGGESALGPDGEPIDESSQMSDLPVKVTHTETGKVLFGPEAPKASQLDAWLEMNPGYEVAPRSDSEESDSDYEEEDEEEESSRQETEEKILLDPNSEEVSEKDAKQIIETAKQDVDDEYSMQYSARGSQSYYTVAHAISERVEKQSALLINGTLKHYQLQGLEWMVSLYNNNLNGILADEMGLGKTIQTIALITYLMEHKRLNGPYLIIVPLSTLSNWTYEFDKWAPSVVKISYKGTPAMRRSLVPQLRSGKFNVLLTTYEYIIKDKHILAKIRWKYMIVDEGHRMKNHHCKLTQVLNTHYVAPRRILLTGTPLQNKLPELWALLNFLLPTIFKSCSTFEQWFNAPFAMTGERVDLNEEETILIIRRLHKVLRPFLLRRLKKEVESQLPEKVEYVIKCDMSALQKILYRHMQAKGILLTDGSEKDKKGKGGAKTLMNTIMQLRKICNHPYMFQHIEESFAEHLGYSNGVINGAELYRASGKFELLDRILPKLRATNHRVLLFCQMTSLMTIMEDYFAFRNFLYLRLDGTTKSEDRAALLKKFNEPGSQYFIFLLSTRAGGLGLNLQAADTVVIFDSDWNPHQDLQAQDRAHRIGQQNEVRVLRLCTVNSVEEKILAAAKYKLNVDQKVIQAGMFDQKSSSHERRAFLQAILEHEEENEEEDEVPDDETLNQMIARREEEFDLFMRMDMDRRREDARNPKRKPRLMEEDELPSWIIKDDAEVERLTCEEEEEKIFGRGSRQRRDVDYSDALTEKQWLRAIEDGNLEEMEEEVRLKKRKRRRNVDKDPAKEDVEKAKKRRGRPPAEKLSPNPPKLTKQMNAIIDTVINYKDRCNVEKVPSNSQLEIEGNSSGRQLSEVFIQLPSRKELPEYYELIRKPVDFKKIKERIRNHKYRSLGDLEKDVMLLCHNAQTFNLEGSQIYEDSIVLQSVFKSARQKIAKEEESEDESNEEEEEEDEEESESEAKSVKVKIKLNKKDDKGRDKGKGKKRPNRGKAKPVVSDFDSDEEQDEREQSEGSGTDDE
partner: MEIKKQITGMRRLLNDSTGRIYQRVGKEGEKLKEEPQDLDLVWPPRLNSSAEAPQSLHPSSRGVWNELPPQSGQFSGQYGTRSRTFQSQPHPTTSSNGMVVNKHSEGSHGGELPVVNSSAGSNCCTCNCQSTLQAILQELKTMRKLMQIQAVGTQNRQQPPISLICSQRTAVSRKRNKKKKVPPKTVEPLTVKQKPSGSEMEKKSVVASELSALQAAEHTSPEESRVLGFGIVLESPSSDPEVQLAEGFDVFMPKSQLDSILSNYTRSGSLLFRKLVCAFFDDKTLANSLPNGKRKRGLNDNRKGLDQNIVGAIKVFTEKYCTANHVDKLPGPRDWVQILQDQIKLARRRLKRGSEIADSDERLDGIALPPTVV
B4: Polycomb complex protein BMI-1 (Homo sapiens), P35226 (parent)
chain: MHRTTRIKITELNPHLMCVLCGGYFIDATTIIECLHSFCKTCIVRYLETSKYCPICDVQVHKTRPLLNIRSDKTLQDIVYKLVPGLFKNEMKRRRDFYAAHPSADAANGSNEDRGEVADEDKRIITDDEIISLSIEFFDQNRLDRKVNKDKEKSKEEVNDKRYLRCPAAMTVMHLRKFLRSKMDIPNTFQIDVMYEEEPLKDYYTLMDIAYIYTWRRNGPLPLKYRVRPTCKRMKISHQRDGLTNAGELESDSGSDKANSPAGGIPSTSSCLPSPSTPVQSPHPQFPHISSTMNGTSNSPSGNHQSSFANRPRKSSVNGSSATSSG
partner: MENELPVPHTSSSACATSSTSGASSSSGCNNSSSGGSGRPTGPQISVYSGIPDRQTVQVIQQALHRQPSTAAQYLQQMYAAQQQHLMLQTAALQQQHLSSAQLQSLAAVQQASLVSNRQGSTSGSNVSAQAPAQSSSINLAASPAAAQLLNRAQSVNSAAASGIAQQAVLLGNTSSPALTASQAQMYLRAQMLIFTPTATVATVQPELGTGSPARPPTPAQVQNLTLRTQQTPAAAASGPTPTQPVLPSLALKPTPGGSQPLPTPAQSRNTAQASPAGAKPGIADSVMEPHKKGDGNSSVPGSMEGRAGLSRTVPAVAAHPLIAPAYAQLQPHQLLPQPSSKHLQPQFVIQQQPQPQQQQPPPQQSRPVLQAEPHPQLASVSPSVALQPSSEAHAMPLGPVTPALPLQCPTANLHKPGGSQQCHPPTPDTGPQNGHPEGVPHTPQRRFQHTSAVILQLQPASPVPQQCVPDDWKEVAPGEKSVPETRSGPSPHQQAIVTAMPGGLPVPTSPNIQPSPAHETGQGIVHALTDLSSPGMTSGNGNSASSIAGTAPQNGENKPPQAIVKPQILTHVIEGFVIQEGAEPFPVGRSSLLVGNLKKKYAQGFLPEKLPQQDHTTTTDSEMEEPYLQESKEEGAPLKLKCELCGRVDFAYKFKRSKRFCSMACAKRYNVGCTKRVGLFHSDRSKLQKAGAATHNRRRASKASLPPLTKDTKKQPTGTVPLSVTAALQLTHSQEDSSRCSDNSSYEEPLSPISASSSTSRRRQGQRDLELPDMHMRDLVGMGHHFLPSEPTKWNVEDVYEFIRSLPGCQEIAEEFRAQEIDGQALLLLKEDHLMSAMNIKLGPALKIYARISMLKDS
B5: LHFPL tetraspan subfamily member 5 protein (Homo sapiens), Q8TAF8 (parent)
chain: MVKLLPAQEAAKIYHTNYVRNSRAVGVMWGTLTICFSVLVMALFIQPYWIGDSVNTPQAGYFGLFSYCVGNVLSSELICKGGPLDFSSIPSRAFKTAMFFVALGMFLIIGSIICFSLFFICNTATVYKICAWMQLAAATGLMIGCLVYPDGWDSSEVRRMCGEQTGKYTLGHCTIRWAFMLAILSIGDALILSFLAFVLGYRQDKLLPDDYKADGTEEV
partner: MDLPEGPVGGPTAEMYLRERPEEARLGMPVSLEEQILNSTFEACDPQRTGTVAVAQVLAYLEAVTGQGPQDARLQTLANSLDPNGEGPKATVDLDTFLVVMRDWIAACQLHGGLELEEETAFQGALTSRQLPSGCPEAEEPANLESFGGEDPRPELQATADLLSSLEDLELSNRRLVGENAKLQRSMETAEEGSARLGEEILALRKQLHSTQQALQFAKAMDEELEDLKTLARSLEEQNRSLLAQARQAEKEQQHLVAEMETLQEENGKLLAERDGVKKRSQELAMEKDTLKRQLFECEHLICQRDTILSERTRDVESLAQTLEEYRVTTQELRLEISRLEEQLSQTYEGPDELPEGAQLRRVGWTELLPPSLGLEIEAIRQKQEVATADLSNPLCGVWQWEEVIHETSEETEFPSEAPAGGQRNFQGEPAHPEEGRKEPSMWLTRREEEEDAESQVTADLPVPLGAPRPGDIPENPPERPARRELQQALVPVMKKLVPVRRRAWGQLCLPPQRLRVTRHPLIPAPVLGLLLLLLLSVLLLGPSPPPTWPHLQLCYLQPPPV

Variants of B1 are the subject of one experiment. The settings on record: with smim3_human SMIM3, Q9BZL3.
As to MLLLLLSIIVLHVAVLVLLFVSTIVSQWIVGNGHATDLWQNCSTSSSGNVHHCFSSSPNEWLQSVQATMILSIIFSILSLFLFFCQLFTLTKGGRFYITGIFQILAGLCVMSAAAIYTVRHPEWHLNSDYSYGFAYILAWVAFPLALLSGVIYVILGKRE [R157G], the “effect of a mutation on the interaction” value is on record as “disrupting interaction strength”.

The next experiment covers variants of B2. Particulars: with stx11_human STX11, O75558.
As for MSLADELLADLEEAAEEEEGGSYGEEEEEPAIEDVQEETQLDLSGDSVKTIAKLWDSKMFAEIMMKIEEYISKQAKASEVMGPVEAAPEYRVIVDANNLTVEIENEVNIIHKFIRDKYSKRFPELESLVPNALDYIRTVKELGNSLDKCKNNENLQQILTNATIMVVSVTASTTQGQQLSEEELERLEEACDMALELNASKHRIYEYVESRMSFIAPNLSIIIGASTAAKIMGVAGGLTNLSKMPACNIMLLGAQRKTLSGFSSTSVLPHTGYIYHSDIVQSLPPDLRRKAARLVAAKCTLAARVDSFHESTEGKVGYELKDEIERKFDKWQEPPPVKQVKPLPAPLDGQRKKRGGRRYRKMKERLGLTEIRKQANRMSFGEIEEDAYQEDLGFSLGHLGKSGSGRVRQTQVNEATKARISKTLQRTLQKQSVVYGGKSTIRDRSSGTASSVAFTPLQGLEIVNPQAAEKKVAEANQKYFSSMAEFLKVKGEKSGLMST [L107V], the “effect of a mutation on the interaction” value is “with no effect”.

The next experiment covers variants of B3. The settings on record: with BEND7, Q8N7W2-2.
Take D1546E: the “effect of a mutation on the interaction” value is given as “with no effect”.

The variants in a further experiment derive from B3. The settings on record: with BEND7, Q8N7W2-2. This is another data set of the same source.
Turning to D1546E, the “effect of a mutation on the interaction” value is on record as “with no effect”.

In a further experiment the parent is B4. Particulars: with PHC2, Q8IXK0-5.
For MHRTTRIKITELNPHLMYVLCGGYFIDATTIIECLHSFCKTCIVRYLETSKYCPICDVQVHKTRPLLNIRSDKTLQDIVYKLVPGLFKNEMKRRRDFYAAHPSADAANGSNEDRGEVADEDKRIITDDEIISLSIEFFDQNRLDRKVNKDKEKSKEEVNDKRYLRCPAAMTVMHLRKFLRSKMDIPNTFQIDVMYEEEPLKDYYTLMDIAYIYTWRRNGPLPLKYRVRPTCKRMKISHQRDGLTNAGELESDSGSDKANSPAGGIPSTSSCLPSPSTPVQSPHPQFPHISSTMNGTSNSPSGNHQSSFANRPRKSSVNGSSATSSG [C18Y], the “effect of a mutation on the interaction” value is on record as “disrupting interaction strength”.

In a further experiment the parent is B5. Particulars: with kash5_human KASH5, Q8N6L0.
MVKLLPAQEAAKIYHTNYVRNSRAVGVMWGTLTICFSVLVMALFIQPYWIGDSVNTPQAGYFGLFSYCVGNVLSSELICKGGPLDFSSIPSRAFKTAMFFVALGMFLIIGSIICFSLFFICNTATVYKICAWMQLAAATGLMIGCLVYPDGWDSSEVRRMCGEQMGKYTLGHCTIRWAFMLAILSIGDALILSFLAFVLGYRQDKLLPDDYKADGTEEV [T165M]: the “effect of a mutation on the interaction” value is recorded as “with no effect”.
